The values that follow come from article PMC8472264.

The experiment addresses ArtB (untagged receptor-binding subunit of S. Typhimurium DT104 ArtAB) (Salmonella enterica Typhimurium DT104). Kind of experiment: SDS-PAGE of unboiled samples.

“ArtB (untagged receptor-binding subunit of S. Typhimurium DT104 ArtAB) (natural protein)” had a stoichiometry N of 5.
